From US20260348977 (published 2026)

Experiments:
[1] = target: T1, non-sense peptide; assay: competition (chemiluminescence ELISA)
T1 chain: DSGPEYADVV

[2] = target: T2, elongated peptide (human); assay: competition (chemiluminescence ELISA)
T2 chain: WSLNPDTGLWE

[3] = target: T3, standard/selection peptide SLNPDTGLWE (CILP-M) (human); assay: competition (chemiluminescence ELISA, 20C, pH 7.4)
T3 chain: SLNPDTGLWE

[4] = target: T4, truncated peptide (human); assay: competition (chemiluminescence ELISA)
T4 chain: LNPDTGLWE

binding result [1]: no binding
binding result [2]: no binding
IC50 [3]: 2 ng/mL
binding result [4]: no binding
B1: NB326 #76 13B5-1C6-2C4 (antibody, V domains shown)
VH: QVQLQQSGPELVKPGASVRISCKASGYTFTNYYIHWVKQRPGQGLEWIGWISPGIVDTEYNEKFKNKATLTADKSSRTAYMQLSSLTSEDSAVYFCARRSAGSYGDFDYWGQGTTLTVSS
VL: DIVMTQSQKFMSTSVGDRVSVTCKASQNVGTDVVWYQQRPGQSPKALMYSASYRYSGVPDRFTGSGSGTDFTLTISNVQSEDLAEYFCQHYDNYPLTFGAGTKLELK
